Like-named read-outs stand apart in the source and are kept apart here.
B1: APHiv fused to maltose binding protein (MBP) (designed binder)
chain: KEKKQLRKELKQLEKELQALRWRLAQIEKRLQAIRKRLAQKEE
B2: APH fused to maltose binding protein (MBP) (designed binder)
chain: KQLEKELKQLEKELQAIEKQLAQLQWKAQARKKKLAQLKKKLQA
B3: APHi fused to maltose binding protein (MBP) (designed binder)
chain: KEEKQIEKELKQIEKELQAIEWRLAQLRKRLQALRKRKAQKRE
B4: APHiii (APH3) fused to maltose binding protein (MBP) (designed binder)
chain: KRKKQKRKRAKQLRKRLQALEWQLAQIRKELQAAEKEEAQIEE
B5: APHvi (APH4) fused to maltose binding protein (MBP) (designed binder)
chain: KQLKQIEKRLKQIEKRLQAKEWEKAQLRKELQALRKKLAQLRE

Key:
Assay in all cases: AUC
[1] = biological target: the molecule itself
[2] = biological target: the molecule itself; remark: listed apart in the source
[3] = biological target: the molecule itself; remark: listed apart in the source

Row | Protein | stoichiometry N [1] | MW (global fit)/MW (calc., expected dimer mass) [2] | stoichiometry N [3]
1 | B1 | > 2 | 1.23 | 
2 | B2 |  |  | 2
3 | B3 | > 2 | 1.7 | 
4 | B4 | 2 | 0.94 | 
5 | B5 | 2 | 0.96 | 
